Test [1] has as its target mouse serum albumin (mouse) (UniProt P07724). In words: SPR, albumin on chip, 1:1 interaction model.
Test [2] concerns the target cyno serum albumin (cyno). In words: SPR, albumin on chip, 1:1 interaction model.
The target of test [3] is human serum albumin (human) (UniProt P02768). In words: SPR, albumin on chip, 1:1 interaction model.
The target of test [4] is mouse serum albumin (mouse) (UniProt P07724). In words: SPR, albumin on CM5 chip, multicycle kinetics.
Test [5] addresses cyno serum albumin (cyno). In words: SPR, albumin on CM5 chip, multicycle kinetics.
The target in test [6] is human serum albumin (human) (UniProt P02768). In words: SPR, albumin on CM5 chip, multicycle kinetics.
Test [7] deals with mAng2. The test can be described thus: competition ELISA mAng2/mTie2-Fc; blocked: mTie2-Fc.
mAng2, sequence (chain, as listed by the source limits assumed): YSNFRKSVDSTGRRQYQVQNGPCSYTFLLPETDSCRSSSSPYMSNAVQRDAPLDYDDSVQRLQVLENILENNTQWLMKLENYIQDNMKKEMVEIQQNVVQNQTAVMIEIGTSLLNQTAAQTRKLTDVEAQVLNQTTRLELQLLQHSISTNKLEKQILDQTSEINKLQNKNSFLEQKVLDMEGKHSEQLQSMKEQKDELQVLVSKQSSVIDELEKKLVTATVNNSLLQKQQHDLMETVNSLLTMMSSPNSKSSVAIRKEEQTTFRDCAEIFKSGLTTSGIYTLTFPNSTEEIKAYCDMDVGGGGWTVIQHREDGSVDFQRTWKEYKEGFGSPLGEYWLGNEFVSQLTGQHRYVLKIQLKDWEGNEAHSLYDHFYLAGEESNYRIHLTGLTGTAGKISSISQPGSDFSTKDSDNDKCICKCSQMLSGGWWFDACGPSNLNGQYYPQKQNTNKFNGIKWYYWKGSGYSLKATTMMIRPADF
For test [8], the target named is hAng2. In words: competition ELISA, blocking of hAng2 binding to hTie2.
hAng2, sequence (chain, as listed by the source limits assumed): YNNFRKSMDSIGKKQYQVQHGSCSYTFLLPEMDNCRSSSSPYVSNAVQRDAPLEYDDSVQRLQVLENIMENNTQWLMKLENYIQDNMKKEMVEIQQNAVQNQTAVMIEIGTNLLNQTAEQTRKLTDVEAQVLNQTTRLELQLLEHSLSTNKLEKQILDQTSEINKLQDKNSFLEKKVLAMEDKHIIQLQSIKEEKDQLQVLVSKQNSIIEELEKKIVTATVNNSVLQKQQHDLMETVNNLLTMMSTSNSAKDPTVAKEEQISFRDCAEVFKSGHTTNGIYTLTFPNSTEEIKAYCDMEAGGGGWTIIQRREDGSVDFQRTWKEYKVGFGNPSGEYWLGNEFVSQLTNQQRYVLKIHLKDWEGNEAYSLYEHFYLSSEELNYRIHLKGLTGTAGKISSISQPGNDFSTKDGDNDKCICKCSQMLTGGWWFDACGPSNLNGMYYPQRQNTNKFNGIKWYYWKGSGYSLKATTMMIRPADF
For test [9], the target named is hAng2. The test can be described thus: competition ELISA hAng2/hTie2-Fc; blocked: hTie2-Fc.
For test [10], the target named is hAng2. The test can be described thus: competition ELISA, blocking of hAng2 binding to hTie2-Fc.
For test [11], the target named is hAng2. The test can be described thus: competition ELISA, blocking of hAng2 binding to hTie2. This is another data set of the same source.
Test [12] deals with hAng2. In words: competition ELISA hAng2/hTie2-Fc; blocked: hTie2-Fc. The source holds these as a separate data set.
In test [13] the target is mAng2. The test can be described thus: competition ELISA, blocking of mAng2 binding to mTie2.
The target in test [14] is hAng2. The test can be described thus: competition ELISA hAng2/hTie2-Fc; blocked: hTie2-Fc. This is another data set of the same source.
Test [15] deals with hAng2. In words: competition ELISA, blocking of hAng2 binding to hTie2-Fc. This is another data set of the same source.
For test [16], the target named is hAng2. The test can be described thus: competition ELISA, blocking of hAng2 binding to hTie2. The source holds these as a separate data set.
In test [17] the target is mAng2. The test can be described thus: competition ELISA, blocking of mAng2 binding to mTie2. This is another data set of the same source.
In test [18] the target is mAng2. In words: competition ELISA, blocking of mAng2 binding to mTie2-Fc.
For test [19], the target named is hAng2. The test can be described thus: competition ELISA, blocking of hAng2 binding to hTie2-Fc. The source holds these as a separate data set.
The target in test [20] is cAng2 (cynomolgus monkey). In words: competition ELISA, blocking of cAng2 binding to cTie2.
In test [21] the target is mAng2. The test can be described thus: competition ELISA, blocking of mAng2 binding to mTie2. The source holds these as a separate data set.
Test [22] concerns the target cAng2 (cynomolgus monkey). In words: competition ELISA, blocking of cAng2 binding to cTie2-Fc.
Test [23] has as its target mAng2. The test can be described thus: competition ELISA mAng2/mTie2-Fc; blocked: mTie2-Fc. This is another data set of the same source.
In test [24] the target is cAng2 (cynomolgus monkey). The test can be described thus: competition ELISA, blocking of cAng2 binding to cTie2. The source holds these as a separate data set.
Test [25] concerns the target hAng2.
Test [26] has as its target cAng2 (cynomolgus monkey). The test can be described thus: competition ELISA, blocking of cAng2 binding to cTie2. The source holds these as a separate data set.

mouse serum albumin (mouse), sequence (P07724 25-608 limits assumed): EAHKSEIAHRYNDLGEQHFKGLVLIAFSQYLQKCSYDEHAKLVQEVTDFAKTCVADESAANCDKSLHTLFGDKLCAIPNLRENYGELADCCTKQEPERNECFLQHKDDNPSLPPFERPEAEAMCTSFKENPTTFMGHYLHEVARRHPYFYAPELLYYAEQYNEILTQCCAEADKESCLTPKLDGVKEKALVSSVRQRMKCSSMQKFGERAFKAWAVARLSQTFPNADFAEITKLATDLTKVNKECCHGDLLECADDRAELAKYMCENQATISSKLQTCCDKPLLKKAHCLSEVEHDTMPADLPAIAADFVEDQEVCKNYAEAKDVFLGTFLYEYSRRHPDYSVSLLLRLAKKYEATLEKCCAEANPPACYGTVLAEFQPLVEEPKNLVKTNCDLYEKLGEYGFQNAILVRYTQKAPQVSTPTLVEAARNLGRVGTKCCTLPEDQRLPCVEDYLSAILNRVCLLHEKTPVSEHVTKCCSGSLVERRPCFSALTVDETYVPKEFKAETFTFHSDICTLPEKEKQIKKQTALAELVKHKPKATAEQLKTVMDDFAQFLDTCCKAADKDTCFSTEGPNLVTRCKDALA
cyno serum albumin (cyno), sequence (A2V9Z4 25-608): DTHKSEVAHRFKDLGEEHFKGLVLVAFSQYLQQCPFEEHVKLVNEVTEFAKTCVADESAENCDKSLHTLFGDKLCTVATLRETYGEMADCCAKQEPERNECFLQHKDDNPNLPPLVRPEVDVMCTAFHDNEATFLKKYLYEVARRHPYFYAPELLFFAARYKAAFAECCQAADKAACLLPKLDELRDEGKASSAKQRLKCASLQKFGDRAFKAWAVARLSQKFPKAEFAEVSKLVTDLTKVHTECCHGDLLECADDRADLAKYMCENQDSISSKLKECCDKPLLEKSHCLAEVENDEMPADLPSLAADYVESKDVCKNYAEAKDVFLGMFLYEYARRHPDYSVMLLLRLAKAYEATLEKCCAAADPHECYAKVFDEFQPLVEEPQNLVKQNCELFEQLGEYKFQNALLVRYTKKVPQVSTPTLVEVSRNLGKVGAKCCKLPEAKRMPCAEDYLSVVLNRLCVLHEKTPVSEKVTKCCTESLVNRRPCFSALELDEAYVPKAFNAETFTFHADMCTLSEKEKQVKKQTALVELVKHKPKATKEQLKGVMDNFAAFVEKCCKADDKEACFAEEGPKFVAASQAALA

On to ALB11 (VHH), for which the equilibrium dissociation constant (Kd) in test [1] turned out to be 51000 pM; in test [2], 4000 pM; in test [3], 4000 pM; in test [4] it was 49000 pM; in test [5] it was 4000 pM; in [6], 4000 pM. The dissociation rate constant (koff) in [1] stood at 0.03 s⁻¹; in test [3] it was 0.0019 s⁻¹; in test [4], 0.032 s⁻¹; in test [5], 0.0016 s⁻¹; in test [6], 0.0018 s⁻¹.

AMG386: the IC50 (read off the curve) was 5 pM with mAng2 [7]; 3 pM with hAng2 [8]; 6 pM with hAng2 [9]; 3 pM with hAng2 [10]; 6 pM with hAng2 [11]; 7 pM in the test with hAng2 [12]. In addition, the IC50 (read off the curve) turned out to be 1 pM with mAng2 [13]; 4 pM with hAng2 [14]; 2 pM with hAng2 [15]; 1 pM with hAng2 [16]; 9 pM with mAng2 [17]; 2 pM with mAng2 [18]. Also, the IC50 (read off the curve) in the test with hAng2 [19] turned out to be 3 pM; in [20], 30 pM; with mAng2 [21], 3 pM; in [22], 10 pM; with mAng2 [23] it was 6 pM; in test [24], 3 pM. Further, the IC50 (read off the curve) in [26] amounted to 4 pM. In the test with hAng2 [25], this substance returned an IC50 (read off the curve), hAng2 mediated HUVEC survival of 1000 pM.

Values taken from patent US20170247475A1.
